We go through 1 substance from article doi:10.1101/2020.12.04.412312.

The assay has as its target Leptospira interrogans triosephosphate isomerase (Leptospira interrogans). The assay is described as follows: SEC. (In general: Size exclusion chromatography separates by hydrodynamic size, large species first.)

A word on the stoichiometry N: it is the number of molecules, sites or subunits per partner or assembly. As for “Leptospira interrogans triosephosphate isomerase (enzyme)”, the stoichiometry N came to 2.
